Data reported in patent publication US7846710B2, “Cell comprising an intein for the production of a cyclic peptide” (The Penn State Research Foundation, priority 1998, dated 2010).

Biological target: T1, recombinant Streptomyces antibioticus tyrosinase (Streptomyces antibioticus, UniProt P07524)
T1 construct: expressed in transfected cells; host or cells: E. coli XL1-Blue co-transformed with pDIM-NY (pDIMN-Y) and pARCP-p or pARCP2-6H
T1 sequence (P07524 whole entry, looked up): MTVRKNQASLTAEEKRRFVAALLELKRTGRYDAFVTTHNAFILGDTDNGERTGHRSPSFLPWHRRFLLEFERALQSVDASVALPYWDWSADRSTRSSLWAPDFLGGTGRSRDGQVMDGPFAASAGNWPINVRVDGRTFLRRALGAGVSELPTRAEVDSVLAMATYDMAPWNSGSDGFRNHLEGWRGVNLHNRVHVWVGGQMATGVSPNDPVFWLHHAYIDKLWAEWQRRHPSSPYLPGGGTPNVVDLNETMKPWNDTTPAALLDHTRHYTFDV
Test: In vivo assay on FeCuY plates to detect tyrosinase inhibition (pigment formation) by co-expressed cyclic peptide
Format: cell-based, Escherichia coli XL1-Blue
Settings: co-expression in tyrosinase expressing XL1-Blue cells on FeCuY plates, L-(+)arabinose (0.5%) induction
Excerpt: FIG. 7 is a photograph of FeCuY plates used in an in vivo assay to detect tyrosinase inhibition by pseudostellarin F.
The tyrosinase gene (including ORF 438) from Streptomyces antibioticus (Berman et al, Gene 37:101, 1985) was amplified with Vent-polymerase from pIJ702 (ATCC no. 35287) with primers introducing 5′
Ndel and 3′ EcoRI restriction sites. The PCR product was digested with Ndel and EcoRI and ligated into similarly digested pDIMN2 (Ostermeier et al, supra) to generate pDIMN-Y. Transformed ligation mixtures were grown at ambient temperature for 5 days, and colonies that expressed tyrosinase were identified by pigment formation on FeCuY plates [LB agar plates containing ampicillin (200 ug/ml), FeCI3.6H2O (0.2 mM), CuS04.5H2O (0.2 mM), L-tyrosine (0.3 mg/ml, Y) and isopropyl-B-D-galactoside (1 mM)] (Della-Cioppa, G. et al., Biotechnology 8:634, 1990).
Pseudostellarin F production was readily detected in vivo through inhibition of recombinant Streptomyces antibioticus tyrosinase (FIG. 7). In the experiment shown in FIG. 7, XLI-Blue cells were co-transformed with pDIM-NY and either pARCP2-6H (a & b) or pARCP-p (c & d). The cells were plated on FeCuY plates with chloramphenicol (50 ug/ml), either without (a & c) or with (b & d) L-(+)arabinose (0.5%).

“cyclo-[Ser-Gly-Gly-Tyr-Leu-Pro-Pro-Leu] (SGGYLPPL; backbone cyclized; printed: Ser-Gly-Gly-Tyr-Leu-Pro-Pro-Leu) [pseudostellarin F, backbone cyclic peptide produced in E. coli from pARCP-p by intein-mediated cyclization]” was tested, and the “tyrosinase inhibition (pigment formation)” value was “dramatically reduced pigment formation”.
In the case of “cyclo-[CHMHHHHHHGAGAA] (backbone cyclized) [cyclic peptide from pARCP2-6H, unrelated cyclic peptide encoded by plasmid pARCP2-6H, used as negative control]”, the “tyrosinase inhibition (pigment formation)” value is reported as “failed to inhibit tyrosinase”.
